Data: patent US20230192896A1 (BIOVERATIV THERAPEUTICS, published 2023)
Changes are numbered by the printed parent chain. Each block holds one binder with its values, some of them ahead of it.

Legend:
FIXa-SM (FIXa+EGR-CMK) [1] = biological target: T1, FIXa-SM (FIXa+EGR-CMK) (human, UniProt P00740 47-191; P00740 227-461, EGR-CMK (L-Glu-Gly-Arg chloromethyl ketone) covalently bound to the active site); assay: BLI; class meaning: paragraph 914
T1 construct: BLI antigen bought from Haematologic Technologies (HCIXA-EGR); also called FIXa with substrate mimic

[2] = biological target: T2, free FIXa (activated Factor IX) (human, UniProt P00740 47-191; P00740 227-461); assay: BLI, 200 nM FIXa in HBS with or without 5 mM CaCl2
T2 construct: BLI antigen bought from Haematologic Technologies (HCIXA-0050); also called factor IXa

[3] = biological target: T3, FIX zymogen (non-activatable FIX) (human, UniProt P00740 47-461); assay: not stated (FIG. 24B)
T3 construct: also called FIXn; Factor IX zymogen

[4] = biological target: T2, free FIXa (activated Factor IX); assay: not stated (FIG. 24B)
FX zymogen [5] = biological target: T4, FX zymogen (Homo sapiens (Human), UniProt P00742 41-179; P00742 183-488); assay: not stated (FIG. 24B)
T4 construct: Light and heavy chain of secreted FX zymogen, disulfide linked; also called Factor X zymogen; factor X zymogen
T4 sequence (P00742 41-179, chain 1 of 2): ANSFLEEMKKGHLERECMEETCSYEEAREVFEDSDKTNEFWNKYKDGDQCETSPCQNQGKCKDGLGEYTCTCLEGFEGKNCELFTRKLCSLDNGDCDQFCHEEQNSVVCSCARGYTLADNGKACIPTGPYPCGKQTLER
T4 sequence (P00742 183-488, chain 2 of 2): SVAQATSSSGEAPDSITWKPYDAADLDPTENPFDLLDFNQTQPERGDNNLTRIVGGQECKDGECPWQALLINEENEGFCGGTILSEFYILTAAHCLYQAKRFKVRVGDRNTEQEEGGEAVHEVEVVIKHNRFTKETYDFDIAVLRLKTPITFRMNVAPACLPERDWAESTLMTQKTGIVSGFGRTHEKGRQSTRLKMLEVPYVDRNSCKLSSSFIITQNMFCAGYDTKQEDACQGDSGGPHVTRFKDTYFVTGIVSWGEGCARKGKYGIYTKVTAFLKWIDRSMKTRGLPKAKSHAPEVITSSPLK

[6] = biological target: T2, free FIXa (activated Factor IX); assay: cell-based or functional assay
[7] = biological target: T2, free FIXa (activated Factor IX); assay: Fab mixed 1.5:1 with FIXa, complex purified by size exclusion chromatography
Text: To do this, we first cloned, expressed, and purified only the Fab portion of each of these antibodies using standard methods. Subsequently, we mixed each Fab in a 1.5:1 molar ratio with FIXa in a calcium containing buffer and purified the resulting complex from excess Fab using size exclusion chromatography.

FIXa-SM (FIXa+EGR-CMK) [8] = biological target: T1, FIXa-SM (FIXa+EGR-CMK); assay: BLI co-binding: biotinylated FIXa-SM on streptavidin sensor, then 100 nM bispecific, then 200 nM FX
Experimental: Following incubation in Tris-buffered saline supplemented with 0.1% bovine serum albumin and 5 mM CaCl₂ (referred to as buffer in FIG. 21), the biosensors were then incubated with biotinylated FIXa-SM produced in-house. […] Finally, the same biosensors were incubated with 200 nM of non-biotinylated FX (non-activated Factor X).

[9] = biological target: T2, free FIXa (activated Factor IX); assay: BLI, IgG on AHQ sensor, 100 nM antigen (the weaker partner)
Experimental: BLI was performed on the OctetRed94 or the Octet HTX system, according to standard procedure. Briefly, biosensors were equilibrated in Tris-buffered saline supplemented with 5 mM CaCl₂ and 0.1% bovine serum albumin (TBSFCa). Plates were then transferred to the instrument. A soak step was performed on the instrument, with incubation of the biosensors for 60 seconds in TBSFCa. […] Following this, the biosensors were incubated in TBSFCa for 60 seconds to establish baseline. Next, the biosensors were transferred to wells containing the desired antigen (100 nM in TBSFCa) and incubated for 90 seconds. Finally, the sensors were transferred to TBSFCa alone for 90 seconds incubation.

FXa-SM (FXa+EGR-CMK) = biological target: T5, FXa-SM (FXa+EGR-CMK) (human, UniProt P00742 41-179; P00742 235-488, EGR-CMK covalently bound to the active site); assay: BLI; class meaning: paragraph 285
T5 construct: Bought from Haematologic Technologies (HCXA-EGR); also called covalently modified FXa; FXa mimic
T5 sequence (P00742 41-179, chain 1 of 2): as the sequence (P00742 41-179, chain 1 of 2) above
T5 sequence (P00742 235-488, chain 2 of 2): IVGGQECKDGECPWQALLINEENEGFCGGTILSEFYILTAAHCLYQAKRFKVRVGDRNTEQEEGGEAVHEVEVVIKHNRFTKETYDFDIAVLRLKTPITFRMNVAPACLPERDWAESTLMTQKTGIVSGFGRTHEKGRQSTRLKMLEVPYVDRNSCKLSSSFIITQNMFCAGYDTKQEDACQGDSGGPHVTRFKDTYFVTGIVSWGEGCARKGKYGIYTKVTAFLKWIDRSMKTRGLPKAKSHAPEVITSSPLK

FX zymogen [10] = biological target: T4, FX zymogen; assay: not stated (Table 3)
activated Factor X (FXa) = biological target: T6, activated Factor X (FXa) (Homo sapiens (Human), UniProt P00742 41-179; P00742 235-488); assay: BLI, antibody on AHQ sensor
T6 construct: also called free FXa; factor Xa
T6 sequence (P00742 41-179, chain 1 of 2): as the sequence (P00742 41-179, chain 1 of 2) above
T6 sequence (P00742 235-488, chain 2 of 2): as the sequence (P00742 235-488, chain 2 of 2) above

binding result [9]: binds
B9: BIIB-9-612 (antibody, V domains shown)
VH: QVQLVQSGAEVKKPGASVKVSCKASGYTFTSYYMHWVRQAPGQGLEWMGIINPSGGSTSYAQKFQGRVTMTRDTSTSTVYMELSSLRSEDTAVYYCARDAGYHWYGMDVWGQGTTVTVSS
VL: EIVLTQSPATLSLSPGERATLSCRASQSVSRYLAWYQQKPGQAPRLLIYDASNRATGIPARFSGSGSGTDFTLTISSLEPEDFAVYYCQQSSLFPLTFGGGTKVEIK
notes: IgG

binding result (FXa-SM (FXa+EGR-CMK)): binds
B10: BIIB-12-1321 (antibody, V domains shown)
VH: QVQLVQSGAEVKKPGSSVKVSCKASGGTFSSYAISWVRQAPGQGLEWMGGIIPIFGTANYAQKFQGRVTITADESTSTAYMELSSLRSEDTAVYYCARTPDTSSATDWGQGTLVTVSS
VL: B9 VL with L4M, R31S, A51S, S91F, S92T, L93N, F94L, L96Y
notes: IgG

binding result [9]: binds
B11: BIIB-9-578 (antibody, V domains shown)
VH: QLQLQESGPGLVKPSETLSLTCTVSGGSISSSSYYWGWIRQPPGKGLEWIGSISYSGSTYYNPSLKSRVTISVDTSKNQFSLKLSSVTAADTAVYYCARDKYQDYSFDIWGQGTMVTVSS
VL: DIQMTQSPSSVSASVGDRVTITCRASQGIDSWLAWYQQKPGKAPKLLIYAASSLQSGVPSRFSGSGSGTDFTLTISSLQPEDFATYYCQQANFLPFTFGGGTKVEIK
notes: IgG

binding result (FXa-SM (FXa+EGR-CMK)): binds
B12: BIIB-12-1320 (antibody, V domains shown)
VH: QLQLQESGPGLVKPSETLSLTCTVSGGSISSSSYYWGWIRQPPGKGLEWIGSIYYSGSTYYNPSLKSRVTISVDTSKNQFSLKLSSVTAADTAVYYCARGSGLLVREHYYYYMDVWGKGTTVTVS
VL: B11 VL with V11L, G28S, D30S, W32Y, A34N, N92D, F93D, L94T, F96W
notes: IgG

binding result [9]: binds
B13: BIIB-9-631 (antibody, V domains shown)
VH: QVQLVQSGAEVKKPGASVKVSCKASGYTFTSYYMHWVRQAPGQGLEWMGIINPSGGSTSYAQKFQGRVTMTRDTSTSTVYMELSSLRSEDTAVYYCARAENRGDYEAWGQGTLVTVSS
VL: B11 VL with D30S, S31R, A91R, N92T, F93S, L94F, F96L
notes: IgG

binding result (activated Factor X (FXa)): no binding (tested: 250 nM)
B15: BIIB-12-917 (antibody, V domains shown)
VH: EVQLVQSGAEVKKPGESLKISCKGSGYSFTTYWIGWVRQMPGKGLEWMGIIYPGDSDTRYSPSFQGQVTISADKSISTAYLQWSSLKASDTAMYYCARGRFRPRGRFDYWGQGTLVTVSS
VL: EIVMTQSPATLSVSPGERATLSCRASQSVSSNLAWYQQKPGQAPRLLIYGASTRATGIPARFSGSGSGTEFTLTISSLQSEDFAVYYCQQLFNHPPTFGGGTKVEIK
notes: IgG

binding result (FXa-SM (FXa+EGR-CMK)): binds
B16: BIIB-12-894 (antibody, V domains shown)
VH: QLQLQESGPGLVKPSETLSLTCTVSGGSISSSSYYWGWIRQPPGKGLEWIGSIYYSGSTYYNPSLKSRVTISVDTSKNQFSLKLSSVTAADTAVYYCAREGAHSSMAGLDVWGQGTMVTVSS
VL: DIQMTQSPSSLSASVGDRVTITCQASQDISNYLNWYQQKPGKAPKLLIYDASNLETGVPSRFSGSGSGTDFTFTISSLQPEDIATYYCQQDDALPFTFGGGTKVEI
notes: IgG

The next lines start with the binder.

B1: BIIB-9-484 (antibody, V domains shown)
VH: EVQLVESGGGLVKPGGSLRLSCAASGFTFSSYSMNWVRQAPGKGLEWVSSISSSSSYIYYADSVKGRFTISRDNAKNSLYLQMNSLRAEDTAVYYCARDVGGYAGYYGMDVWGQGTTVTVSS
VL: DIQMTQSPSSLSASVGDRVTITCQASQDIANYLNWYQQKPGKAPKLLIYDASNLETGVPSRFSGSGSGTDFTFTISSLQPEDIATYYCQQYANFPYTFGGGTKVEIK
notes: IgG
binding result (FIXa-SM (FIXa+EGR-CMK) [1]): binds | binding result [2]: binds

B2: BS-027125 (bispecific antibody, V domains shown)
VH 1: B1 VH with S30G, S33D, S54G, S55E, D62E
VL 1: not shown
VH 2: B15 VH
VL 2: B15 VL
Kd [3]: 8 nM | Kd [4]: 2 nM | Kd (FX zymogen [5]): 20 nM | rate of substrate (ADG299) cleavage by FIXa (amidolytic activity) [6]: 3 fold

B3: BIIB-9-1336 one-armed (antibody, V domains shown)
VH: B1 VH with S30G, S33D, S54G, S55E, D62E
VL: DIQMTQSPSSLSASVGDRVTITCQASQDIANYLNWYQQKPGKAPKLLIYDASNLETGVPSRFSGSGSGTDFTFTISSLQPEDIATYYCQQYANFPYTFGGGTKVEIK
rate of substrate (ADG299) cleavage by FIXa (amidolytic activity) [6]: 3 fold

B4: Fab portion of BIIB-9-484 (Fab, V domains shown)
VH: B1 VH
VL: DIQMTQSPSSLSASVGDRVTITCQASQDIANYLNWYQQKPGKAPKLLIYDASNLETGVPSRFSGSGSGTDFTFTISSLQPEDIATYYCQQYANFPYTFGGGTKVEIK
notes: Fab
binding result [7]: binds

B5: BIIB-9-1335 (antibody, V domains shown)
VH: B1 VH with S33D, N35H, S54G
VL: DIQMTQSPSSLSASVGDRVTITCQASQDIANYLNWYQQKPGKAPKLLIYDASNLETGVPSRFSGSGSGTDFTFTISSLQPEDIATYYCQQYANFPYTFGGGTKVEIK
rate of ATIII inhibition of FIXa (ATIII-FIXa complex band on gel) [6]: ~3 fold

B6: BIIB-9-484/BIIB-12-917 (bispecific antibody, V domains shown)
VH 1: B1 VH
VL 1: not shown
VH 2: B15 VH
VL 2: B15 VL
binding result (FIXa-SM (FIXa+EGR-CMK) [8]): binds

B7: BIIB-9-1336 (antibody, V domains shown)
VH: B1 VH with S30G, S33D, S54G, S55E, D62E
VL: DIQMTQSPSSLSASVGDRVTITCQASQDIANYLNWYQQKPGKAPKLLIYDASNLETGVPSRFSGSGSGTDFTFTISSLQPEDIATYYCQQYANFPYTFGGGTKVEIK
rate of ATIII inhibition of FIXa (ATIII-FIXa complex band on gel) [6]: ~3 fold | rate of substrate (ADG299) cleavage by FIXa (amidolytic activity) [6]: 3 fold

B8: BIIB-9-397 (antibody, V domains shown)
VH: QVQLQESGPGLVKPSETLSLTCAVSGYSISSGYYWAWIRQPPGKGLEWIGSIYHSGSTYYNPSLKSRVTISVDTSKNQFSLKLSSVTAADTAVYYCARDVWYVGGFDPWGQGTLVTVSS
VL: DIQMTQSPSSLSASVGDRVTITCQASQDISNYLNWYQQKPGKAPKLLIYDASNLETGVPSRFSGSGSGTDFTFTISSLQPEDIATYYCQQSDDHPPTFGGGTKVEIK
notes: IgG
binding result [9]: binds

B14: BS-027 (antibody, V domains shown)
VH: B15 VH
VL: B15 VL
notes: also called anti-FX arm of BS-027025 and BS-027125; BS-027 FX homodimer
Kd (FX zymogen [10]): 20 nM
